Assay results from paper PMC3315512.

How the values were obtained:
[1] = target: CeHsc70-Δ545 (half-lid deletion of CeHsc70) (C. elegans) (UniProt P09446)
[2] = target: CeHsc70-Δ512 (lidless CeHsc70) (C. elegans) (UniProt P09446)
Sequence of CeHsc70-Δ512 (lidless CeHsc70) (C. elegans) (P09446 1-512, stated change not applied): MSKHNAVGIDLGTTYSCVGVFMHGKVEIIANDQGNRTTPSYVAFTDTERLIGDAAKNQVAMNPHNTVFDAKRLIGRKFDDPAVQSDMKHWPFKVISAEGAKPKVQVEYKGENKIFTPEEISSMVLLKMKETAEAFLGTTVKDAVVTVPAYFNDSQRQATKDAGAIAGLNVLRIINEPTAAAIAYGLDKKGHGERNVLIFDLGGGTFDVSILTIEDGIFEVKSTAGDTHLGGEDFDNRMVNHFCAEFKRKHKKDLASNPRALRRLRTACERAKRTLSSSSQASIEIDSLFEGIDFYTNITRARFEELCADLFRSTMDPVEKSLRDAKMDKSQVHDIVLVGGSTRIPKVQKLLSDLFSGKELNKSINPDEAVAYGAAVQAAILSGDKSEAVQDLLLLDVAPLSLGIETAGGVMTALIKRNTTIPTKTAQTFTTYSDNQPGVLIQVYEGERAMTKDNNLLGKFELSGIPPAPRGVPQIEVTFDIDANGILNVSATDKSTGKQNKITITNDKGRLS

Sequence of DNJ-13 (C. elegans, unlabelled), Q20774 1-331 (natural protein) (Q20774 entry or part of it): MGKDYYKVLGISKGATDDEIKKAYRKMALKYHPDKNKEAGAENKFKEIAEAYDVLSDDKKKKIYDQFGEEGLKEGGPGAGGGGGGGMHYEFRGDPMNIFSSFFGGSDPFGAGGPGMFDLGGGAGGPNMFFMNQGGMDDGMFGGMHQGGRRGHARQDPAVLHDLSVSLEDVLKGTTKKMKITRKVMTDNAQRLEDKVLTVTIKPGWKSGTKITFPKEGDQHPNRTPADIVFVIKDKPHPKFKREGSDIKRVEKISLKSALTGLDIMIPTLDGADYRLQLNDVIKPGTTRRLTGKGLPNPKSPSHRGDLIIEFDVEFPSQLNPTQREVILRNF
Sequence of CeHsc70-Δ545 (half-lid deletion of CeHsc70) (C. elegans) (P09446 1-545, stated change not applied): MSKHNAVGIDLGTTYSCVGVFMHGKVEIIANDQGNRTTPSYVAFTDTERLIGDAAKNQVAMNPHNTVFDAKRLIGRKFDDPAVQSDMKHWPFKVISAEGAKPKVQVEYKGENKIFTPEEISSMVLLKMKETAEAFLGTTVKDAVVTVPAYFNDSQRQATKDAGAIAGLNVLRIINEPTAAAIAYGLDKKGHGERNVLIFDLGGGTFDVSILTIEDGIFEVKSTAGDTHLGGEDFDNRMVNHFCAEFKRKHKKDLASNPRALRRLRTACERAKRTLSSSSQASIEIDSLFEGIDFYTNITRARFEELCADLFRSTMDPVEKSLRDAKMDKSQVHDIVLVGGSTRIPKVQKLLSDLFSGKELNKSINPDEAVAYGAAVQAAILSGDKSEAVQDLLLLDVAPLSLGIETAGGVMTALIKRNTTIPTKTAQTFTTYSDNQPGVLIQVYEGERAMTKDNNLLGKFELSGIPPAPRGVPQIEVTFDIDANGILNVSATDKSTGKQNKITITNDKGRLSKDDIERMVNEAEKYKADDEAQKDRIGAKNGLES

apparent KD of DNJ-13 from titration of the steady-state ATPase activity, standard buffer, 25°C [1]: 4.2 µM | apparent KD of DNJ-13 from titration of the steady-state ATPase activity of 1 µM CeHsc70-Δ512 in the presence of 2 µM BAG-1, standard buffer, 25°C [2]: 1.2 µM
Substance: DNJ-13 (C. elegans, unlabelled), Q20774 1-331 (natural protein)
